Test results from patent publication US20230203161A1 (TENEOBIO, published 2023).

B1: monoparatopic PSMA×CD3 bispecific antibody 346181×CD3 (bispecific antibody)
chain 1: QLQLQESGPGLVKPSETLSLTCTVSGGSISSSNYFWGWIRQSPGKGLEWIGSIDYSGYTYYNPSLKSRVTISVDTSKNQFSLKLSSVTAADTAVYNCARHKAATADFDYRGQGTLVTVSS
chain 2: EVQLVESGGGLVQPGRSLRLSCAASGFTFDDYAMHWVRQAPGKGLEWVSGISWNSGSIGYADSVKGRFTISRDNAKNSLYLQMNSLRAEDTALYYCAKDSRGYGDYRLGGAYWGQGTLVTVSS
chain 3: not shown
B2: biparatopic anti-PSMA×CD3 antibody 350123×CD3 (bispecific antibody)
chain 1: QLQLQESGPGLVKPSETLSLTCTVSGGSISSSNYFWGWIRQSPGKGLEWIGSIDYSGYTYYNPSLKSRVTISVDTSKNQFSLKLSSVTAADTAVYNCARHKAATADFDYRGQGTLVTVSSGGGGSGGGGSQVQLVESGGGVVQPGRSLRLSCAASGFSFSRYGMHWVRQAPGKGLEGVAVIWYDGSNRYYADSVKGRFTISRDNSKNTLYLQMNSLRAEDTAVYYCAREPRIGYYYESSGYYSLDYRGQGTLVTVSS
chain 2: B1 chain 2
chain 3: not shown
B3: anti-PSMA heavy-chain antibody (HCAb) clone ID 345510 (antibody, V domains shown)
VH: QVQLVESGGGVVQPGRSLRLSCAASGFSFSSYGMHWVRQAPGKGLEWVAVIWYDGSNKYYADSVKGRFTISRDNSKNTMYLQMNSLRAEDTAVYYCAREPRIGYYYESSGYYSLDYRGQGTLVTVSS
notes: Heavy chain-only antibody (UniAb)

Legend:
[1] = target: T1, human Prostate Specific Membrane Antigen (PSMA) (human, UniProt Q04609 1-750); test: cell binding, flow cytometry, LNCAP cells
T1 construct: whole, on cells; also called Glutamate Carboxypeptidase II; FOLH1

[2] = target: T1, human Prostate Specific Membrane …; test: cell binding, flow cytometry, 22Rv1 cells
[3] = target: T1, human Prostate Specific Membrane …; test: cell-based or functional assay
[4] = target: T1, human Prostate Specific Membrane …; test: cell binding, flow cytometry, PC3-PSMA cells
[5] = target: T1, human Prostate Specific Membrane …; test: cell binding, flow cytometry, MDA-PCa-2b cells
[6] = target: T1, human Prostate Specific Membrane …; test: flow cytometry on LNCaP cells
Description: Briefly, 50,000 target cells were stained with a dilution series of purified UniAbs™ for 30 minutes at 4° C. Following incubation, the cells were washed twice with flow cytometry buffer (1×PBS, 1% BSA, 0.1% NaN₃) and stained with goat F(ab′)₂ anti-human IgG conjugated to R-phycoerythrin (PE) (Southern Biotech, cat. #2042-09) to detect cell-bound antibodies. After a 20-minute incubation at 4° C., the cells were washed twice with flow cytometry buffer and the mean fluorescence intensity (MFI) was measured by flow cytometry. The MFI of cells stained with secondary antibody alone were used for determination of background signal and binding of each antibody was converted to fold over background. […] In some experiments EC50 values were calculated using GraphPad Prism 7.
Column 1 indicates the clone ID of the HCAb. Column 2 indicates binding to LNCaP cells measured as fold over the background MFI signal.

T1 sequence (Q04609 whole entry): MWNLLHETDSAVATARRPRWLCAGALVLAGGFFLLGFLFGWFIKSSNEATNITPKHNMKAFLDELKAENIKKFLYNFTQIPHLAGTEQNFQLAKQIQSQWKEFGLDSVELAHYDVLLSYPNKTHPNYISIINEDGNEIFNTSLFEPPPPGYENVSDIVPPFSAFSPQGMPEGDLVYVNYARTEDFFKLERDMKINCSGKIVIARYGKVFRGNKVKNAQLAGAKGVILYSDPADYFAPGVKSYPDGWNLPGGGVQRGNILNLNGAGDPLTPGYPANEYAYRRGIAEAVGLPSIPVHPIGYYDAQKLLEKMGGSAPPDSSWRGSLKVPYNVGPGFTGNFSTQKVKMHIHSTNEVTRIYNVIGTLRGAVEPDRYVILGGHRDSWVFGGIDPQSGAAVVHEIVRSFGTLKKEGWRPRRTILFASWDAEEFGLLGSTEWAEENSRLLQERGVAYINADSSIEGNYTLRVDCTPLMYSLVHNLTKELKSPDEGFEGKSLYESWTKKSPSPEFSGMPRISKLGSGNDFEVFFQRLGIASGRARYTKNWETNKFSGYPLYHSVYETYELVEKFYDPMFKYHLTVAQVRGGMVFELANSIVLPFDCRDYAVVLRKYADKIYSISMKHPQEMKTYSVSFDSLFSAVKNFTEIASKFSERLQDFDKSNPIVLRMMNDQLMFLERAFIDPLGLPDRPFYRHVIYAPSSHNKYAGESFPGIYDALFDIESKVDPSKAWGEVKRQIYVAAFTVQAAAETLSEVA

| Binder | EC50 [1] [nM] | EC50 [2] [nM] | IFNγ EC50, 22Rv1 cells [3] [nM] | IFNγ EC50, LNCAP cells [3] [nM] | IFNγ EC50, MDA-PCa-2b cells [3] [nM] | IFNγ EC50, PC3-PSMA cells [3] [nM] | IL-2 EC50, LNCAP cells [3] [nM] | IL-2 EC50, MDA-PCa-2b cells [3] [nM] | IL-2 EC50, PC3-PSMA cells [3] [nM] | Kill EC50, 22Rv1 cells, resting T-cells [3] [nM] | Kill EC50, LNCAP cells, resting T-cells [3] [nM] | Kill EC50, MDA-PCa-2b cells, resting T-cells [3] [nM] | Kill EC50, PC3-PSMA cells, resting T-cells [3] [nM] | EC50 [4] [nM] | EC50 [5] [nM] | fold over background MFI [6] [fold over background] |
| --- | --- | --- | --- | --- | --- | --- | --- | --- | --- | --- | --- | --- | --- | --- | --- | --- |
| B1 | 17 | 58 | 174 | 63 | 116 | 10.1 | 575 | 38.5 | 4.1 | 52.8 | 14.6 | 23.6 | 3.7 | 30 | 28 |  |
| B2 | 2 | 3 | 380 | 3.29 | 0.9 | 1.01 | 3.73 | 1.11 | 1.1 | 0.42 | 0.84 | 0.41 | 0.4 | 6 | 2 |  |
| B3 |  |  |  |  |  |  |  |  |  |  |  |  |  |  |  | 13 |
